Publication PMC10949515 (Journal of Virology, 2024)
Positions count from the first letter of the chain named.

T1: human FLNB C-terminal fragment R23–24, His6-tagged (human, UniProt O75369 2379-2601)
T1 construct: also called R23–R24; FLNB R23-24
T1 sequence (looked up): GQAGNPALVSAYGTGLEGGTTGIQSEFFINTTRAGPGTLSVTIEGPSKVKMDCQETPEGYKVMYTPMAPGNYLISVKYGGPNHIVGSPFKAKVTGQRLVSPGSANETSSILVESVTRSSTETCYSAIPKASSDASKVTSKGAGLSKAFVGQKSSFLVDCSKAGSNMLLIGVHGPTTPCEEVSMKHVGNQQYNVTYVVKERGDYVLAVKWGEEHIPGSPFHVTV

T2: FLNB R22–24 dimerization-deficient mutant (M2544E, L2546D), His6-tagged (human, UniProt O75369 2282-2601, M2544E | L2546D)
T2 construct: also called mR22–R24; mR22–24
T2 sequence (looked up): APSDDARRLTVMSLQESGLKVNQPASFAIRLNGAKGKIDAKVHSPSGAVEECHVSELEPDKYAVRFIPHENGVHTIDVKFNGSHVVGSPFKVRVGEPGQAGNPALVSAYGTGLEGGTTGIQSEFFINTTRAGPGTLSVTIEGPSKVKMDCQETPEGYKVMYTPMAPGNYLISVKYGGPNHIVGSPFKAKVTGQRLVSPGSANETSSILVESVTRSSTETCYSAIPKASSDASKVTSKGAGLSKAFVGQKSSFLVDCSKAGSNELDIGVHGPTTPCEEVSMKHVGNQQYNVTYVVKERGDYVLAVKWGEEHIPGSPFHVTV

B1: human FLNB C-terminal fragment R22–24, His6-tagged (domain or fragment, UniProt O75369 2282-2601, looked up)
chain: T2 sequence (looked up) with E263M, D265L
notes: also called R22–R24; FLNB R22-24
B2: C4 N-terminal residues 1–149, His6-tagged (domain or fragment)
chain: MDTIKIFNHGEFDTIRNELVNLLKVVKWNTINSNVTVSSTDTIDISDCIREILYKQFKNVRNIEVSSDISFIKYNRFNDTTLTDDNVGYYLVIYLNRTKSVKTLIYPTPETVITSSEDIMFSKSLNFRFENVKRDYKLVMCSISLTYKP
notes: also called C4-N 1–149

How the values were obtained:
[1] = target: the molecule itself
[2] = target: B1; experiment: ITC; settings: both partners purified
[3] = target: T1, human FLNB C-terminal fragment R23–24, …; experiment: ITC; settings: both partners purified
[4] = target: T2, FLNB R22–24 dimerization-deficient …; experiment: SEC; settings: both partners purified

Binder	binding result [1]	Kd [2] [nM]	Kd [3] [nM]	binding result [4]
B1	binds			
B2		41.5 ± 30	< 1	binds
